{
  "source": "paper PMC2776932",
  "about": "(The Febs Journal, 2009)",
  "binders": {"B1": {"name": "Lsm7–Myc (genomically encoded Lsm7p with 13myc tag) (natural protein, S. cerevisiae, UniProt P53905 1-115, looked up)", "chain": "MHQQHSKSENKPQQQRKKFEGPKREAILDLAKYKDSKIRVKLMGGKLVIGVLKGYDQLMNLVLDDTVEYMSNPDDENNTELISKNARKLGLTVIRGTILVSLSSAEGSDVLYMQK"}},
  "target": "T1, GFP-tagged Lsm188p (Lsm8p with the N-terminal domain of Lsm1p) (S. cerevisiae, UniProt P47017 1-51; P47093 11-109)",
  "T1 chain (looked up)": "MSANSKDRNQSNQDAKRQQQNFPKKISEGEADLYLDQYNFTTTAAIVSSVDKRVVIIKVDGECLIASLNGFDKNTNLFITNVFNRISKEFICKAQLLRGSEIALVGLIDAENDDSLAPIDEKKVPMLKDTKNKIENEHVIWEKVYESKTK",
  "assay": "co-IP",
  "data": [
    {"binder": "B1", "values": [
      {"measurement": "reduction of co-precipitated Lsm7p against wild-type", "result": "> 50", "unit": "% reduction"}
    ]}
  ]
}
